This assay deals with His-Tagged rhFc(gamma) receptor I (recombinant human Fc(gamma)R-I; Acro Biosystems, catalog# FCA-H52H1) (human). Briefly: ELISA, control IgG coated, His-tagged rhFc(gamma)RI in solution, anti-His-HRP. (In general: In an ELISA, binding on a coated surface is turned into a signal by an enzyme label.)
His-Tagged rhFc(gamma) receptor I (recombinant human Fc(gamma)R-I; Acro Biosystems, catalog# FCA-H52H1) (human), sequence (P12314 16-292): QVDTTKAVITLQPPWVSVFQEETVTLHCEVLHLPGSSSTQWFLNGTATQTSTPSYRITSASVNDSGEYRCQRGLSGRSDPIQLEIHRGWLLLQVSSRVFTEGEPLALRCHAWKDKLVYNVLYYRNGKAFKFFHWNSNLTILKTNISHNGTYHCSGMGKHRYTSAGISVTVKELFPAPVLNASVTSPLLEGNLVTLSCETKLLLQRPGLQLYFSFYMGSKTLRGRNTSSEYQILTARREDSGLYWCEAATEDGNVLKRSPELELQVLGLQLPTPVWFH

For the substance “Dog IgG, Control Rockland-Inc, Cat# 004-0102-005 (antibody)”, the OD450 at 222 ng/ml Fc(gamma) RI turned out to be 0.686 OD450.
